# Test results reported in patent publication US20150203575A1 (Genentech, published 2015).
# B1: hPILRαR126A expressed on 293T cells (receptor)
# chain: QPSGSTGSGPSYLYGVTQPKHLSASMGGSVEIPFSFYYPWELATAPDVRISWRRGHFHRQSFYSTRPPSIHKDYVNRLFLNWTEGQKSGFLRISNLQKQDQSVYFCAVELDTRSSGRQQWQSIEGTKLSITQAVTTTTQRPSSMTTTWRLSSTTTTTGLRVTQGKRRSDSWHISLETAVGVAVAVTVLGIMILGLICLLRWRRRKGQQRTKATTPAREPFQNTEEPYENIRNEGQNTDPKLNPKDDGIVYASLALSSSTSPRAPPSHRPLKSPQNETLYSVLKA
# notes: also called human PILRαR126A; hPILRαR126A transfectants
# B2: mPILRαR133A expressed on 293T cells (receptor)
# chain: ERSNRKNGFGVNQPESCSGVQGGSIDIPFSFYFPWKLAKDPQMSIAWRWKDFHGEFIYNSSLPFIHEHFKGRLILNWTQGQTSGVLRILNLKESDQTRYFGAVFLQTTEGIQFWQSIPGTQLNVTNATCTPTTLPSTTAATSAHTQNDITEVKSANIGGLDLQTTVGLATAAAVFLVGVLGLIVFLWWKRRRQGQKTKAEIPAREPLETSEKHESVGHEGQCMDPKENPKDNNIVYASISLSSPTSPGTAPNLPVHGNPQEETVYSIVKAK
# notes: also called mouse PILRα133A; mPILRαR133A transfectants
# How the values were obtained:
# hCOLEC12-his = target: T1, hCOLEC12-his (human, UniProt Q5KU26 59-742, sialylated O-glycans and N-glycans); experiment: flow cytometry, transfected 293T cells, PILRα-positive cells gated
# T1 construct: Whole entry named; also called human COLEC12-his; hCOLEC12 (SPR); not shown: his tag
# hPILRα-Fc = target: T2, hPILRα-Fc (human; mouse, UniProt Q9UKJ1 20-197); experiment: flow cytometry, transfected 293T cells
# T2 construct: also called human PILRα-Fc; WT hPILRα-Fc; not shown: Fc of mouse IgG2a (PILRα-mIgG2a, called PILRα-Fc)
# mPILRα-Fc = target: T3, mPILRα-Fc (mouse, UniProt Q2YFS3 32-198); experiment: flow cytometry, transfected 293T cells
# T3 construct: also called mouse PILRα-Fc; WT mPILRα-Fc; not shown: Fc of mouse IgG2a (PILRα-mIgG2a, called PILRα-Fc)
# [1] = target: B1; experiment: flow cytometry, transfected 293T cells, PILRα-positive cells gated
# [2] = target: B2; experiment: as above
# hPILRαR126A-Fc = target: T4, hPILRαR126A-Fc (human; mouse, UniProt Q9UKJ1 20-197); experiment: SPR, hPILRα R126A-Fc immobilized, response difference
# T4 construct: Arg mutant of hPILRα-Fc; also called hPILRα R126-Fc; mutant hPILRα; not shown: Fc of mouse IgG2a (PILRα-mIgG2a, called PILRα-Fc)
# T1 sequence (Q5KU26 59-742 S522P/G606S limits assumed): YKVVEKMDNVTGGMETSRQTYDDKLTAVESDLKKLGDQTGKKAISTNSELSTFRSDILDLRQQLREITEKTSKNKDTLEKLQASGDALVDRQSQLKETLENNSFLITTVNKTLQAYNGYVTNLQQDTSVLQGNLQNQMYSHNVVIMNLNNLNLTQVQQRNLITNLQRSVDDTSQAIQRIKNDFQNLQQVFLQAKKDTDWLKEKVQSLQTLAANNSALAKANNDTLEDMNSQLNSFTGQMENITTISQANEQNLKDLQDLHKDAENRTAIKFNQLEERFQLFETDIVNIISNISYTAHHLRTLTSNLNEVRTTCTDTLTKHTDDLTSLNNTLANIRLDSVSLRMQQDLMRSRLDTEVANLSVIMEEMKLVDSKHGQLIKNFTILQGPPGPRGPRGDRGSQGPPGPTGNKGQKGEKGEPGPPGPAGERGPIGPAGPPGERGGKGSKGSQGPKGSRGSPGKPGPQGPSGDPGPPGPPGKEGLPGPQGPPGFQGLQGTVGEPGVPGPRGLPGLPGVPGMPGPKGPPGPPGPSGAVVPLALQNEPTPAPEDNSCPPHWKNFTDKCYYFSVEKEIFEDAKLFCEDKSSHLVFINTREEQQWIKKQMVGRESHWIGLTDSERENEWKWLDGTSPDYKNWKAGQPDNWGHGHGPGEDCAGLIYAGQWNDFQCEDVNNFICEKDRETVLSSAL
# T3 sequence (Q2YFS3 32-198): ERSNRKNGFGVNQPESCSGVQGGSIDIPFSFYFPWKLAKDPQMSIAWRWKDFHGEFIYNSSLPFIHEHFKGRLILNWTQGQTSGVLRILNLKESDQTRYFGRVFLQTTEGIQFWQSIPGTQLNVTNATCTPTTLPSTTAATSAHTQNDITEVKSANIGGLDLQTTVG
binder,measurement,setting,value
B1,binding result,hCOLEC12-his,no binding
"human CD99 expressed on 293T cells (ligand, UniProt P14209 23-185, looked up, whole, on cells; also called hCD99; hCD99 transfectants) DGGFDLSDALPDNENKKPTAIPKKPSAGDDFDLGDAVVDGENDDPRPPNPPKPMPNPNPNHPSSSGSFSDADLADGVSGGEGKGGSDGGGSHRKEGEEADAPGVIPGIVGAVVVAVAGAISSFIAYQKKKLCFKENAEQGEVDMESHRNANAEPAVQRTLLEK",binding result,hPILRα-Fc,no binding
same,binding result,mPILRα-Fc,no binding
"mouse CD99 expressed on 293T cells (ligand, UniProt Q8VCN6 29-175, looked up, sialylated O-glycans at Thr-45 and Thr-50 (cited as relevant for PILRα recognition), whole, on cells; also called mCD99; mCD99 transfectants) DDFNLGDALEDPNMKPTPKAPTPKKPSGGFDLEDALPGGGGGGAGEKPGNRPQPDPKPPRPHGDSGGISDSDLADAAGQGGGGAGRRGSGDEGGHGGAGGAEPEGTPQGLVPGVVAAVVAAVAGAVSSFVAYQRRRLCFREGGSAPV",binding result,hPILRα-Fc,binds
same,binding result,mPILRα-Fc,binds
"mCD99-Fc (Fc fusion, mouse, UniProt Q8VCN6 29-137, looked up, three O-glycans NeuAc1-2Hex1HexNAc1, also called mouse CD99-Fc; mCD99 (SPR analyte); not shown: Fc) DDFNLGDALEDPNMKPTPKAPTPKKPSGGFDLEDALPGGGGGGAGEKPGNRPQPDPKPPRPHGDSGGISDSDLADAAGQGGGGAGRRGSGDEGGHGGAGGAEPEGTPQG",binding result,[1],no binding
same,binding result,[2],no binding
B2,binding result,hCOLEC12-his,no binding
"hNPDC1-Fc (Fc fusion, sialylated O-glycans, Whole entry named; also called human NPDC1-Fc; hNPDC1 (SPR analyte); not shown: Fc) GHPDVAACPGSLDCALKRRARCPPGAHACGPCLQPFQEDQQGLCVPRMRRPPGGGRPQPRLEDEIDFLAQELARKESGQSTPPLPKDRQRLPEPATLGFSARGQGLELGLPSTPGTPTPTPHTSLGSPVSSDPVHMSPLEPRGGQGD",binding result,[1],no binding
same,binding result,[2],no binding
"hNPDC1-His (ligand, not shown: small tags and cut ends, Sialylated O-glycans, which the patent says are needed for PILRα binding, cannot be carried by the letters, also called hNPDC1-His (WT); hNPDC1-His (mut) (labels name the immobilised hPILRα form)) GHPDVAACPGSLDCALKRRARCPPGAHACGPCLQPFQEDQQGLCVPRMRRPPGGGRPQPRLEDEIDFLAQELARKESGQSTPPLPKDRQRLPEPATLGFSARGQGLELGLPSTPGTPTPTPHTSLGSPVSSDPVHMSPLEPRGGQGD",binding result,hPILRαR126A-Fc,no binding (tested: 1 µM)
